Assay [1] deals with huPD-L1-Fc (R&D Systems) (human) (UniProt Q9NZQ7). Briefly: Biacore, ligand rhPD-L1-Fc, Affimer as analyte.
Assay [2] has the same target. Kind of assay: competition ELISA: hu CD80-Fc coated, 1.6 nM huPD-L1-Fc preincubated with the antibody. (In general: In an ELISA, binding on a coated surface is turned into a signal by an enzyme label.)
The target is the same in assay [3]. Kind of assay: competition ELISA: hu PD-1-Fc coated, huPD-L1-Fc preincubated with the antibody.

One may read the koff as the first-order rate constant of dissociation. Lower therefore signals a long-lived complex. The term kon denotes the second-order rate constant of association. Low readings indicate slow association, high ones fast association. What is called IC50 is the midpoint of a concentration-inhibition curve. The low end stands for greater potency, the high end for weaker potency.

Chain of huPD-L1-Fc (R&D Systems) (human) (Q9NZQ7 19-239 limits assumed): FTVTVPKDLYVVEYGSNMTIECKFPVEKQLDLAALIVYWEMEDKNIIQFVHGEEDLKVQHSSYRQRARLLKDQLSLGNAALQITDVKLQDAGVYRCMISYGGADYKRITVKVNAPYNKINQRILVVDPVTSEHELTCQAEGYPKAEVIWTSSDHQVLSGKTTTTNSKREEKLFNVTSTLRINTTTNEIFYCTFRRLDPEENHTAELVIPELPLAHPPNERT

B1: AVA04-251 BH (designed binder, from a related filing)
chain: MIPRGLSEAKPATPEIQEIVDKVKPQLEEKTNETYGKLEAVQYKTQVLAREGRQDWVLSTNYYIKVRAGDNKYMHLKVFNGPWVPFPHQQLADRVLTGYQVDKNKDDELTGFAEAAAKEAAAKEAAAKEAAAKEAAAKEAAAKMIPRGLSEAKPATPEIQEIVDKVKPQLEEKTNETYGKLEAVQYKTQVLAREGRQDWVLSTNYYIKVRAGDNKYMHLKVFNGPWVPFPHQQLADRVLTGYQVDKNKDDELTGFHHHHHH
With B1, in assay [1], the koff was 0.00129 s⁻¹ and the kon was determined as 752000 M⁻¹ s⁻¹.

B2: mAb anti huPD-L1 29E.2A3 (Biolegend) (antibody, from another filing, V domains shown)
VH: EVQLQQSGPELVKPGASVKMSCKASGYTFTSYVMHWVKQKPGQGLEWIGYVNPFNDGTKYNEMFKGKATLTSDKSSSTAYMELSSLTSEDSAVYYCARQAWGYPWGQGTLVTVSA
VL: DIVLTQSPASLAVSLGQRATISCRATESVEYYGTSLVQWYQQKPGQPPKLLIYAASSVDSGVPARFSGSGSGTDFSLTIHPVEEDDIAMYFCQQSRRVPYTFGGGTKLEIK
Regarding B2, the IC50 in assay [2] is 0.31 nM; in assay [3] it was 0.18 nM.
